Data from paper PMC314469, “Protein Interaction Networks by Proteome Peptide Scanning” (PLoS Biology, 2004).

T1: Myo5 SH3 (MYO5_YEAST), Q04439
T1 chain: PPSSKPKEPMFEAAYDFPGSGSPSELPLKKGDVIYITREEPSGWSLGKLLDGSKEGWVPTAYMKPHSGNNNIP


Molecular target: T1, Myo5 SH3 (MYO5_YEAST), Q04439
Assay: SPOT array

Binder | normalised SPOT signal, Boehringer light units (BLU); mean over the file's lines of this peptide
FLTVYILPKNPFRV [YGR293C 121-134] | 1470
GLDALNIPHKPKQL [YHR033W 57-70] | 167
GLIGMNDPPRPNVK [YGL167C 574-587] | 116
GARFLPAPHRPEKY [YGR154C 63-76] | 153
FLYPYDDPNAPIDE [YCR079W 210-223] | 55.4
FFTIWFIPLVPVFW [YBL029C-A 44-57] | 397
FLRTMAQPTDPKDQ [YER171W 720-733] | 257
FFFFHLSPSIPFWF [YDL196W 57-70] | 6490
GESHYKPPSTPKIN [YFL034W 1020-1033] | 722
FEESMNNPLPPLPP [YDL117W 176-189] | 169
FLSRYPVPDLPIYL [YDR422C 770-783] | 1340
GFDGYMQPIIPGKT [YDR390C 147-160] | 158
GEIMFPAPPLPIAN [YDL172C 53-66] | 2770
FFQLMQSPSLPLLM [YDR159W 429-442] | 830
GFVFFIAPHLPVDL [YER003C 399-412] | 508
FEDHHITPSKPGGQ [YDR451C 287-300] | 67.9
GLRWYRSPIYPYLY [YEL050C 102-115] | 468
FLALFSDPARPFLT [YHL005C 61-74] | 452
GLLTYKGPKVPYQK [YHR028C 497-510] | 150
FESTLPIPTYPREG [YEL070W 20-33] | 122
FWKIHLSPPLPSFK [YGR018C 23-36] | 966
FFPIMSLPVTPVKS [YER032W 46-59] | 122
FEMVFRHPEQPHMI [YBL088C 1519-1532] | 310

Second part, the binder after the results:

normalised SPOT signal, Boehringer light units (BLU); mean over the file's lines of this peptide | Binder
21.6 | GLLLLFVPDSPYDP [YLR106C 2903-2916]
111 | GAGGLGSPALPYLA [YHR111W 74-87]
222 | GAPPLPVPNGPAVG [YPL190C 573-586]
75.8 | FAYSLGLPGAPKIK [YJL033W 477-490]
279 | FPKKMGPPQWPFST [YHR199C 84-97]
130 | GLHDYTSPASPKQT [YOR267C 107-120]
760 | FPFYLSFPFSPSFP [YLR198C 23-36]
142 | FLSYMSEPKYPSNE [YJL029C 360-373]
242 | GEYDLIMPIYPYRL [YIL173W 521-534]
118 | GETRWRIPYLPLDP [YOR108W 386-399]
106 | GETQWRIPYLPLDP [YNL104C 387-400]
121 | FEKRYYVPEDPSQD [YPR184W 1320-1333]
160 | GLRELFLPGMPGLM [YPL249C 557-570]
137 | FFNRYPNPYSPHVL [YLR193C 22-35]
202 | FENLLMEPNLPFFT [YJR031C 942-955]
154 | FLPVFNLPSNPALF [YKL083W 42-55]
70.2 | FESFLRPPSTPDLP [YLR149C 637-650]
271 | GEFFHSSPNIPHYA [YLR244C 297-310]
238 | GLIAHQGPQFPVMG [YKL204W 458-471]
